{"source": "paper PMC6938701", "about": "(Science Advances, 2020)", "proteins": {"B1": {"name": "Recombinant human Prx2 (peroxiredoxin 2) (enzyme, UniProt P32119 2-198, looked up)", "chain": "ASGNARIGKPAPDFKATAVVDGAFKEVKLSDYKGKYVVLFFYPLDFTFVCPTEIIAFSNRAEDFRKLGCEVLGVSVDSQFTHLAWINTPRKEGGLGPLNIPLLADVTRRLSEDYGVLKTDEGIAYRGLFIIDGKGVLRQITVNDLPVGRSVDEALRLVQAFQYTDEHGEVCPAGWKPGSDTIKPNVDDSKEYFSKHN"}}, "target": "the molecule itself", "test": "non-reducing SDS-PAGE with Western blot", "data": [{"protein": "B1", "values": [{"measurement": "stoichiometry N", "result": 2}]}]}
